Article PMC9569990 (International Journal of Molecular Sciences, 2022)

Assays:
Assay in all cases: SPR; cytokine immobilised on ProteOn GLH sensor chip by amine coupling (9,000-14,000 RU); S100P (wild type or mutant) as analyte, 62 nM-16 µM; 25 °C; 10 mM HEPES, 150 mM NaCl, 1 mM CaCl2, 0.05% TWEEN 20, pH 7.4; heterogeneous ligand model (two ligand populations), one-site model for IL-13; values averaged over analyte concentrations (n = 3-5)
Conditions in all cases: both partners purified
[1] = molecular target: T1, Interleukin-27 (human, UniProt Q8NEV9 29-243; Q14213 21-229)
T1 construct: the chain used for the SCOP family assignment; also called IL-27; source: bought: PeproTech (source HEK293)
T1 sequence (looked up) 1: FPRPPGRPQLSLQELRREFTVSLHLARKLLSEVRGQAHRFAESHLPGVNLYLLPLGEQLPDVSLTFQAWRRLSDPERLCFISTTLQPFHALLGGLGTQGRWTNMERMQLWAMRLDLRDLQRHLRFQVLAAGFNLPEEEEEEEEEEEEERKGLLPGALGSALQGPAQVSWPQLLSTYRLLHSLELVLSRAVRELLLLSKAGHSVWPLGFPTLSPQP
T1 sequence (looked up) 2: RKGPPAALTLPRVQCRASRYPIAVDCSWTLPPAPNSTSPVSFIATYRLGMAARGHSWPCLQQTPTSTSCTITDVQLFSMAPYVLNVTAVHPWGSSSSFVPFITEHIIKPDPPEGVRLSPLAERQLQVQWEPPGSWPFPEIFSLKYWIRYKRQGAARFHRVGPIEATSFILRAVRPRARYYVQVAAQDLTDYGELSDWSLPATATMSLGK

[2] = molecular target: T2, Prolactin (human, UniProt P01236 29-227)
T2 construct: Prolactin, human, UniProt P01236; see the manufacturer's catalogue number; also called PRL; source: bought: PeproTech (source E. coli)
T2 sequence (looked up): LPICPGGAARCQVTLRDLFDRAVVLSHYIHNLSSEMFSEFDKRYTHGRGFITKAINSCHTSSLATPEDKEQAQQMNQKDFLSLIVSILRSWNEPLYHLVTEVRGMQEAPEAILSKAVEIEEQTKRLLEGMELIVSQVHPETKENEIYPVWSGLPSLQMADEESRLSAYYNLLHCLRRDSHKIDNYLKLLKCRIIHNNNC

[3] = molecular target: T3, Interleukin-10 (human, UniProt P22301 19-178)
T3 construct: Interleukin-10, human, UniProt P22301; see the manufacturer's catalogue number; also called IL-10; source: bought: PeproTech (source E. coli)

[4] = molecular target: T4, Interleukin-24 (human, UniProt Q13007 52-206)
T4 construct: Interleukin-24, human, UniProt Q13007; see the manufacturer's catalogue number; also called IL-24; source: bought: PeproTech (source CHO)
T4 sequence (looked up): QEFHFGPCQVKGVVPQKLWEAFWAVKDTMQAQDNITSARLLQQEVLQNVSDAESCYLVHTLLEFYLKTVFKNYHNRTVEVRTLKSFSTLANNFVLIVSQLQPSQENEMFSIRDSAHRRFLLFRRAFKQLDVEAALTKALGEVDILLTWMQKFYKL

[5] = molecular target: T5, Interleukin-13 (human, UniProt P35225 25-146)
T5 construct: Interleukin-13, human, UniProt P35225; see the manufacturer's catalogue number; also called IL-13; source: bought: PeproTech (source E. coli)
T5 sequence (P35225 25-146): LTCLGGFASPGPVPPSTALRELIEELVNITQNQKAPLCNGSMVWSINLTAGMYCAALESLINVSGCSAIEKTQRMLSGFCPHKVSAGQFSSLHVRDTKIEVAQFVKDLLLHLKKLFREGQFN

T3 sequence (P22301 19-178): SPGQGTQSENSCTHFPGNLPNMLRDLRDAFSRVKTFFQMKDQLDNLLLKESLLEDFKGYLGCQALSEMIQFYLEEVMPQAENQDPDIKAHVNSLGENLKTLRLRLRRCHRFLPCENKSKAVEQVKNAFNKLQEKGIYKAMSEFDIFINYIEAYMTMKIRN

B1: Human S100P protein (recombinant, Ca^2+-loaded) (natural protein)
chain: MTELETAMGMIIDVFSRYSGSEGSTQTLTKGELKVLMEKELPGFLQSGKDKDAVDKLLKDLDANGDAQVDFSEFIVFVAAITSACHKYFEKAGLK
notes: S100P protein, human, recombinant; probably the whole 95-residue protein (surmise); also called wild-type S100P; WT S100P; source: E. coli, prepared as previously described [28]
Kd1 (heterogeneous ligand model, population 1) [1]: 859 nM
Kd2 (heterogeneous ligand model, population 2) [1]: 1.69 µM
kd1 (heterogeneous ligand model, population 1) [1]: 0.00994 s⁻¹
kd2 (heterogeneous ligand model, population 2) [1]: 0.000357 s⁻¹
Kd1 (heterogeneous ligand model, population 1) [2]: 54.6 nM
Kd2 (heterogeneous ligand model, population 2) [2]: 906 nM
kd1 (heterogeneous ligand model, population 1) [2]: 0.000981 s⁻¹
kd2 (heterogeneous ligand model, population 2) [2]: 0.0103 s⁻¹
Kd1 (heterogeneous ligand model, population 1) [3]: 2.55 µM
Kd2 (heterogeneous ligand model, population 2) [3]: 2.66 µM
kd1 (heterogeneous ligand model, population 1) [3]: 0.0106 s⁻¹
kd2 (heterogeneous ligand model, population 2) [3]: 0.000519 s⁻¹
Kd1 (heterogeneous ligand model, population 1) [4]: 158 nM
Kd2 (heterogeneous ligand model, population 2) [4]: 918 nM
kd1 (heterogeneous ligand model, population 1) [4]: 0.000483 s⁻¹
kd2 (heterogeneous ligand model, population 2) [4]: 0.00794 s⁻¹
Kd [5]: 2300 nM
koff [5]: 0.0183 s⁻¹
